Experimental data taken from patent US20170015749A1 (NATIONAL RESEARCH COUNCIL OF CANADA, published 2017).
Substitutions are numbered along the chain they refer to.

B1: IGF1R-3_H4 (VHH)
VHH: QVQLVESGGGLVQPGGSLRLSCAASEYPSNFYAMSWFRQAPGKEREFVAGVSRDGLTTLYADSVKGRFTMSRDNSKNTVYLQMNSLRAEDTAVYYCAIVITGVWNKVDVNSRSYHYWGQGTLVTVSS
notes: Humanized variant of IGF1R-3, monomeric VHH; not shown: C-terminal tag from expression vector pSJF2H (protein purified by IMAC)
B2: IGF1R-3_H5 (VHH)
VHH: B1 VHH with Q1E, A49S, M70I, V79L
notes: as for B1
B3: IGF1R-3_H2 (VHH)
VHH: B1 VHH with F37V, E44G, R45L, F47W
notes: as for B1
B4: IGF1R-3 VHH (VHH)
VHH: B1 VHH with Q3K, V5E, P14A, A23V, S75A, Y80D, L86V, R87K, L122Q
notes: Llama VHH expressed in E. coli TG1 from pSJF2H and tested as monomer; also called anti-IGF1R VHH IGF1R-3; IGF1R VHH; not shown: C-terminal tag from expression vector pSJF2H (protein purified by IMAC)
B5: IGF1R-3_H1 (VHH)
VHH: B1 VHH with Q1E, F37V, E44G, R45L, F47W, A49S, M70I, V79L
notes: as for B1

Target: T1, recombinant extracellular portion of human IGF1R (IGF1R^933-His) (human, UniProt P08069 31-933)
T1 construct: It contains a furin cleavage site (RKRR) between the alpha and beta subunits, so the secreted protein may be two disulphide-linked chains; Immobilized by amine coupling on a CM5 chip; also called recombinant human IGF1R; human IGF1R fragment; not shown: His tag from vector pCDN4/myc-His
Assay: SPR, Biacore 3000, human IGF1R immobilized on CM5, VHH as analyte, 1:1 model
Experimental: (§1) Approximately 3000 Resonance Units (RU) of recombinant human IGF1R were immobilized on a Sensor chip CM5. Immobilization was carried out at a concentration of 10 μg/ml in 10 mM acetate at pH4.0 using the amine coupling kit supplied by the manufacturer. The remaining binding sites were blocked with 1 M ethanolamine pH 8.5. An ethanolamine blocked surface was used as a reference surface. For the binding studies, analyses were carried out at 25° C. in 10 mM HEPES, pH7.4 containing 150 mM NaCl, 3 mM EDTA and 0.005% surfactant P20 (Polyoxyethylenesorbitan; GE Healthcare). […] Surfaces were regenerated with 10 mM glycine pH 2.0 with a contact time of 24 seconds. Data were analyzed with BIAevaluation 4.1 software (GE Healthcare).

Kd [nM] | koff [s⁻¹] | Binder
1.4 | 0.00055 | B1
7.5 | 0.0025 | B2
6.6 | 0.00072 | B3
1.3 | 0.00013 | B4
47 | 0.0023 | B5

Target: T2, recombinant human Insulin Receptor (R&D systems) (human, UniProt P06213-2 28-944, limits assumed)
T2 construct: extracellular domain; Immobilized on a CM5 chip at about 4000 RU; also called IR; recombinant extracellular portion of the human Insulin Receptor
Assay: SPR, IGF1R-3 VHH (1 nM per text) injected over immobilised human Insulin Receptor surface (curve without asterisk)
Experimental: as §1

T2 sequence (P06213 other isoform, or with tags, fused parts or gaps limits assumed): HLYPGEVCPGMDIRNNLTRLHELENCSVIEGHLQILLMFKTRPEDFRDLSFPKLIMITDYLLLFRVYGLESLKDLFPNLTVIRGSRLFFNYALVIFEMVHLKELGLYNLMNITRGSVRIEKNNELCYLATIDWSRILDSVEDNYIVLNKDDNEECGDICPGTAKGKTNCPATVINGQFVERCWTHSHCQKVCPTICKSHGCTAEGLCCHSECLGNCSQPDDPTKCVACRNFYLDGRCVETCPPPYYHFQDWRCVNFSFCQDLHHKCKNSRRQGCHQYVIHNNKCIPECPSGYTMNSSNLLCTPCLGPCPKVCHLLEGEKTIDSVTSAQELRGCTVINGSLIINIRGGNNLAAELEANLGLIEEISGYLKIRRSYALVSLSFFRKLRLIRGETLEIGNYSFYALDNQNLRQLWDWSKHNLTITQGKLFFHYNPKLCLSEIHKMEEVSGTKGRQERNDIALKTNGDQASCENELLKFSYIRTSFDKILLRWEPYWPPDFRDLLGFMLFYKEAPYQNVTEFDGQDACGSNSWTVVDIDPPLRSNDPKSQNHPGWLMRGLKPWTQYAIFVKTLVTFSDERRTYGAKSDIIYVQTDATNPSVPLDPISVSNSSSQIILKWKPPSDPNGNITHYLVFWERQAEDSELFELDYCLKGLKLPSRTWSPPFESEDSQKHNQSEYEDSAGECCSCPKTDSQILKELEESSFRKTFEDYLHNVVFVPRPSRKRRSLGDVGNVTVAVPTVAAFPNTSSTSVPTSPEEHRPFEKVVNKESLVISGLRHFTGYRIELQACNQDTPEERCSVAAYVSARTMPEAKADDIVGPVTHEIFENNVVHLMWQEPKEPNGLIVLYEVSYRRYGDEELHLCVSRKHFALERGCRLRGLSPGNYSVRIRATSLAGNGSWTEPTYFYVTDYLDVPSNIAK

binding result | Binder
no binding (tested: 1 nM) | B4
